The text below walks through data of patent US20250034222A1, “IL-38 VARIANTS” (Monash University, priority 2021, published 2025).

This series is described as follows: Nano differential scanning fluorimetry of IL-38-Fc variants (apparent melting temperature). The class given is physicochemical. To be noted: N-terminal IL-38-Fc variants, knobs-into-holes IgG1-Fc, IL-38 (C70V, C37S, C38R, C43A, C67A, C123S). From the text: Indicated IL-38 chains differing in their N-terminus were expressed and purified from Expi293 cells. The relative purification yield is indicated between the N-terminal variants. The stability of the purified product was monitored by nano differential scanning fluorimetry and is expressed as the apparent melting temperature (Tm). N-terminal variants (except 2-152) were trialled as “knobs-into-holes” IgG1-Fc fusions utilising the IL-38 (C70V, C37S, C38R, C43A, C67A, C123S) sequence. The 2-152 N-terminal variant was trialled as “knobs-into-holes” IgG1-Fc fusions utilising the IL-38 (C2A, C70V, C37S, C38R, C43A, C67A, C123S) sequence.
Indicated linker variants were expressed and purified from Expi293 cells. The relative purification yield is indicated between the linker variants. The stability of the purified product was monitored by nano differential scanning fluorimetry and is expressed as the apparent melting temperature (Tm). […] All N-terminal linker variants were trialled as “knobs-into-holes” IgG1-Fc fusions utilising the IL-38 (C70V, C37S, C38R, C43A, C67A, C123S) sequence.

For the substance “3-152: Knobs-into-holes IgG1-Fc fusion, IL-38 chain residues 3-152 (C70V, C37S, C38R, C43A, C67A, C123S); probably SEQ ID NO: 25/26”, the “Stability (apparent melting temperature, Tm)” value is 66.0 °C.
